For this assay, the target named is T1, vesicular stomatitis virus (VSV) phosphoprotein (P), wild type (vesicular stomatitis virus (VSV)), P03520.
T1 chain: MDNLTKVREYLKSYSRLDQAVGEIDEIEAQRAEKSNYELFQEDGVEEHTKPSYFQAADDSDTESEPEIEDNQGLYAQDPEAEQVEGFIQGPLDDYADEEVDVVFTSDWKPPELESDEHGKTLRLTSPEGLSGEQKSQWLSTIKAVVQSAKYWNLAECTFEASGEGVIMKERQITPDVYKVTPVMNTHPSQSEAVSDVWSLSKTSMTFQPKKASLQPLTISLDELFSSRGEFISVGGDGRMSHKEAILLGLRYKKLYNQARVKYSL
The assay is described as follows: SEC-MALS. As to conditions: remark: other sources report otherwise. In general terms: SEC sorts molecules by how far they enter the pores of the column.

B1: vesicular stomatitis virus (VSV) phosphoprotein (P), wild type, P03520 1-265 (natural protein)
chain: MDNLTKVREYLKSYSRLDQAVGEIDEIEAQRAEKSNYELFQEDGVEEHTKPSYFQAADDSDTESEPEIEDNQGLYAQDPEAEQVEGFIQGPLDDYADEEVDVVFTSDWKPPELESDEHGKTLRLTSPEGLSGEQKSQWLSTIKAVVQSAKYWNLAECTFEASGEGVIMKERQITPDVYKVTPVMNTHPSQSEAVSDVWSLSKTSMTFQPKKASLQPLTISLDELFSSRGEFISVGGDGRMSHKEAILLGLRYKKLYNQARVKYSL
For orientation: stoichiometry N means a count of units in the complex or per binding partner. With B1, the stoichiometry N is 2.

For the origin of these results see paper PMC7307139.
